US20210087286A1 (Amgen, published 2021)

T1: human GIPR (human, UniProt P48546 22-466)
T1 sequence: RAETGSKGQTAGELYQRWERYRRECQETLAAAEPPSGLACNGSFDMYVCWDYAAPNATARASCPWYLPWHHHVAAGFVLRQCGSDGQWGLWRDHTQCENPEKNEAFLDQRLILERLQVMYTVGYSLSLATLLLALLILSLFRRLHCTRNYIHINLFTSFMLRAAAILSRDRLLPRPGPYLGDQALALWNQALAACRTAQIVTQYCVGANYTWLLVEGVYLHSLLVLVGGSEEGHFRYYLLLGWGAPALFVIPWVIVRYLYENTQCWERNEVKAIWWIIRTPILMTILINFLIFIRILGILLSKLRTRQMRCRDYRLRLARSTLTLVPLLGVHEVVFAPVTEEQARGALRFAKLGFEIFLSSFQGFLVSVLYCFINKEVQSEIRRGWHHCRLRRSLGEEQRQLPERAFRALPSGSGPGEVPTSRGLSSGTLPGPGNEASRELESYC

T2: murine GIPR (murine, UniProt Q0P543 19-460, limits assumed)
T2 sequence: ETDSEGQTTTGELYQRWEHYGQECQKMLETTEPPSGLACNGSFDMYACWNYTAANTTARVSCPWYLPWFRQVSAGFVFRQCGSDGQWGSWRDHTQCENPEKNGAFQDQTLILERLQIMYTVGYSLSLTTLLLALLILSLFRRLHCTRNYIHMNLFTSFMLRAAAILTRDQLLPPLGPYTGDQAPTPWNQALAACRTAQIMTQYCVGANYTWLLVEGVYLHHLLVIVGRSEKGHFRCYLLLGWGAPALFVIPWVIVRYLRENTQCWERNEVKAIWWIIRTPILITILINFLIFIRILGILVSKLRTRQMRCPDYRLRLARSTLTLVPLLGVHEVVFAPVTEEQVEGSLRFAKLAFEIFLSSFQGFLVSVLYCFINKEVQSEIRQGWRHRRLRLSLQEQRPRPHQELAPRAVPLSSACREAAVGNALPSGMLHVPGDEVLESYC

T3: huGIPR ECD (human, UniProt P48546 21-129, limits assumed)
T3 construct: Soluble analyte of the Biacore assay; also called human GIPR extracellular domain
T3 sequence: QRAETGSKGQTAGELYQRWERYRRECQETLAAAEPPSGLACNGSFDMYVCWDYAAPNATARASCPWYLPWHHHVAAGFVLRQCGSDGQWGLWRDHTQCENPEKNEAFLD


What was measured:
human GIPR [1] = molecular target: T1, human GIPR; assay: cell-based or functional assay
murine GIPR = molecular target: T2, murine GIPR; assay: cell-based or functional assay
human GIPR [2] = molecular target: T1, human GIPR; assay: cell-based or functional assay; remark: listed apart in the source
huGIPR ECD = molecular target: T3, huGIPR ECD; assay: SPR (Biacore T200), mAb captured via goat anti-huFc, 200 nM huGIPR ECD analyte
Protocol: Immobilization of Goat-anti-huFc antibody to a S-CM5 sensor chip surface was performed according to manufacturer's instructions. The Biacore instrument running buffer is 0.005% P20/PBS 1×, pH7.4, no calcium chloride, no magnesium chloride. Briefly, carboxyl groups on the sensor chip surfaces were activated by injecting 60 μL of a mixture containing 0.2 M N-ethyl-N′-(dimethylaminopropyl) carbodiimide (EDC) and 0.05 M N-hydroxysuccinimide (NHS). Goat-anti-huFc antibody was diluted in 10 mM sodium acetate, pH 4.0 at 20 μg/ml and injected over the activated chip surface at 30 uL/min for 6 minutes. Excess reactive groups on the surfaces were deactivated by injecting 60 μL of 1 M ethanolamine. Final immobilized level was ˜8000 resonance units (RU).
Binding assays were carried out on the immobilized goat anti-huFc antibody surface by Biacore T200. The experiment was performed at 25° C. The instrument running buffer was 0.005% P20/PBS. The goat anti-huFc capture antibody was covalently attached to the sensor chip surface via standard amine coupling to flow cells channel 1-4. The anti-huGIPR antibodies were diluted in sample buffer (0.1 mg/ml BSA, 0.005% P20, PBS) to ˜10 nM then captured to flow cells channel 2, 3, 4. Flow cell channel 1 was as a blank reference surface without injection of anti-huGIPR antibody. The captured antibody response range was ˜250 RU. Then 200 nM huGIPR ECD was injected over the goat anti-huFc antibody captured anti-huGIPR antibody surfaces at flow rate 50 ul/min for 3 minutes. After a 10 minutes dissociation, each surface was regenerated by injecting 10 mM Glycine, pH 1.5 for 30 seconds twice.

Row | Binder | human cAMP IC50 (human GIPR [1]) [µM] | murine cAMP (murine GIPR) [nM] | cAMP IC50 (human GIPR [2]) [µM] | koff (huGIPR ECD) [s⁻¹]
1 | iPS:529397 (antibody, human IgG1, kappa, N297G, V domains shown) VH: not shown VL: EIVLTQSPATLSLSPGERATLSCRASQSVSSNLAWYQQKPGQAPRLLIYGAATRATGIPDRFSGSGSGTEFTLTISRLEPEDFAVYYCQQYNNWPLTFGGGTKVEIKR | 0.05 | 108 |  | 
2 | iPS:529403 (antibody, human IgG1, kappa, N297G, V domains shown) VH: not shown VL: EIVLTQSPATLSLSPGERATLSCRASQSVDLHLAWYQQKPGQAPRLLIYEAATRATGIPDRFSGSGSGTEFTLTISRLEPEDFAVYYCQQYQNWPLTFGGGTKVEIKR | 0.0339 | 12 |  | 
3 | 2G10.344 (antibody, human IgG1, kappa, N297G, V domains shown) VH: not shown VL: EIVMTQSPATLSVSPGERATLSCRASQSVSSHLAWYQQKPGQAPRLLIYEAATRATGIPARFSGSGSGTEFTLTISSLQSEDFAVYYCQQYQQWPLTFGGGTKVEIKR |  |  | 0.0219 | 6e-05
4 | 2G10.343 (antibody, human IgG1, kappa, N297G, V domains shown) VH: not shown VL: EIVMTQSPATLSVSPGERATLSCRASQSVLEHLAWYQQKPGQAPRLLIYEAATRATGIPARFSGSGSGTEFTLTISSLQSEDFAVYYCQQYNNWPLTFGGGTKVEIKR |  |  | 0.0376 | 6e-05
5 | 2G10.609 (antibody, human IgG1, kappa, N297G, V domains shown, also called SS-26234) VH: not shown VL: EIVMTQSPATLSVSPGERATLSCRASQSVERHLAWYQQKPGQAPRLLIYEAATRATGIPARVSGSGSGTEFTLTISSLQSEDFAVYYCQQYQNWPLTFGGGTKVEIKR |  |  | 0.0269 | 6e-05
6 | 2G10.345 (antibody, human IgG1, kappa, N297G, V domains shown) VH: not shown VL: EIVMTQSPATLSVSPGERATLSCRASQSVNRHLAWYQQKPGQAPRLLIYEAATRATGIPARFSGSGSGTEFTLTISSLQSEDFAVYYCQQYNNWPLTFGGGTKVEIKR |  |  | 0.0189 | 8e-05
7 | 2G10.606 (antibody, human IgG1, kappa, N297G, V domains shown, also called SS-26231) VH: not shown VL: EIVMTQSPATLSVSPGERATLSCRASQSVLTHLAWYQQKPGQAPRLLIYEAATRATGIPARVSGSGSGTEFTLTISSLQSEDFAVYYCQQYQNWPLTFGGGTKVEIKR |  |  | 0.0204 | < 5e-05
8 | 2G10.348 (antibody, human IgG1, kappa, N297G, V domains shown) VH: not shown VL: EIVMTQSPATLSVSPGERATLSCRASQSVSSNLAWYQQKPGQAPRLLIYGAATRATGIPARFSGSGSGTEFTLTISSLQSEDFAVYYCQQYNNWPLTFGGGTKVEIKR | 0.053 | 14600 | 0.0428 | 0.0006
9 | 2G10.605 (antibody, human IgG1, kappa, N297G, V domains shown, also called SS-26230) VH: not shown VL: EIVMTQSPATLSVSPGERATLSCRASQSVDVNLAWYQQKPGQAPRLLIYNAATRATGIPARVSGSGSGTEFTLTISSLQSEDFAVYYCQQYQNWPLTFGGGTKVEIKR |  |  | 0.0256 | 7e-05

Continued, values first:

Row | human cAMP IC50 (human GIPR [1]) [µM] | murine cAMP (murine GIPR) [nM] | cAMP IC50 (human GIPR [2]) [µM] | koff (huGIPR ECD) [s⁻¹] | Binder
10 | 0.0366 | 79.5 |  |  | iPS:529400 (antibody, human IgG1, kappa, N297G, V domains shown) VH: not shown VL: EIVLTQSPATLSLSPGERATLSCRASQSVSSNLAWYQQKPGQAPRLLIYGAATRATGIPDRFSGSGSGTEFTLTISRLEPEDFAVYYCQQYNNWPLTFGGGTKVEIKR
11 | 0.0278 | 3.9 |  |  | iPS:529404 (antibody, human IgG1, kappa, N297G, V domains shown) VH: not shown VL: EIVLTQSPATLSLSPGERATLSCRASQSVNLNLAWYQQKPGQAPRLLIYQAATRATGIPDRFSGSGSGTEFTLTISRLEPEDFAVYYCQQYNQWPLTFGGGTKVEIKR
12 |  |  | 0.0116 | < 5e-05 | 2G10.342 (antibody, human IgG1, kappa, N297G, V domains shown) VH: not shown VL: EIVMTQSPATLSVSPGERATLSCRASQSVERHLAWYQQKPGQAPRLLIYEAATRATGIPARFSGSGSGTEFTLTISSLQSEDFAVYYCQQYQQWPLTFGGGTKVEIKR
13 | 0.0227 | 6.1 |  |  | iPS:529405 (antibody, human IgG1, kappa, N297G, V domains shown) VH: not shown VL: EIVLTQSPATLSLSPGERATLSCRASQSVFSHLAWYQQKPGQAPRLLIYEAATRATGIPDRFSGSGSGTEFTLTISRLEPEDFAVYYCQQYQNWPLTFGGGTKVEIKR
14 | 0.0393 | 12.9 |  |  | iPS:529399 (antibody, human IgG1, kappa, N297G, V domains shown) VH: not shown VL: EIVLTQSPATLSLSPGERATLSCRASQSVSEHLAWYQQKPGQAPRLLIYEAATRATGIPDRFSGSGSGTEFTLTISRLEPEDFAVYYCQQYQNWPLTFGGGTKVEIKR
15 |  |  | 0.0168 | < 5e-05 | 2G10.602 (antibody, human IgG1, kappa, N297G, V domains shown, also called SS-26227) VH: not shown VL: EIVMTQSPATLSVSPGERATLSCRASQSVFEHLAWYQQKPGQAPRLLIYEAATRATGIPARVSGSGSGTEFTLTISSLQSEDFAVYYCQQYNNWPLTFGGGTKVEIKR
16 |  |  | 0.0129 | < 5e-05 | 2G10.610 (antibody, human IgG1, kappa, N297G, V domains shown, also called SS-26235) VH: not shown VL: EIVMTQSPATLSVSPGERATLSCRASQSVFTHLAWYQQKPGQAPRLLIYEAATRATGIPARVSGSGSGTEFTLTISSLQSEDFAVYYCQQYNNWPLTFGGGTKVEIKR
17 |  |  | 0.0194 | 6e-05 | 2G10.607 (antibody, human IgG1, kappa, N297G, V domains shown, also called SS-26232) VH: not shown VL: EIVMTQSPATLSVSPGERATLSCRASQSVDRHLAWYQQKPGQAPRLLIYEAATRATGIPARVSGSGSGTEFTLTISSLQSEDFAVYYCQQYNQWPLTFGGGTKVEIKR
18 |  |  | 0.0217 | < 5e-05 | 2G10.608 (antibody, human IgG1, kappa, N297G, V domains shown, also called SS-26233) VH: not shown VL: EIVMTQSPATLSVSPGERATLSCRASQSVFSHLAWYQQKPGQAPRLLIYEAATRATGIPARVSGSGSGTEFTLTISSLQSEDFAVYYCQQYQQWPLTFGGGTKVEIKR
19 |  |  | 0.0215 | 6e-05 | 2G10.601 (antibody, human IgG1, kappa, N297G, V domains shown, also called SS-26226) VH: not shown VL: EIVMTQSPATLSVSPGERATLSCRASQSVFSHLAWYQQKPGQAPRLLIYEAATRATGIPARVSGSGSGTEFTLTISSLQSEDFAVYYCQQYQNWPLTFGGGTKVEIKR
20 |  |  | 0.0284 | 0.0001 | 2G10.347 (antibody, human IgG1, kappa, N297G, V domains shown) VH: not shown VL: EIVMTQSPATLSVSPGERATLSCRASQSVSSNLAWYQQKPGQAPRLLIYGAATRATGIPARFSGSGSGTEFTLTISSLQSEDFAVYYCQQYNNWPLTFGGGTKVEIKR
21 |  |  | 0.0271 | < 5e-05 | 2G10.604 (antibody, human IgG1, kappa, N297G, V domains shown, also called SS-26229) VH: not shown VL: EIVMTQSPATLSVSPGERATLSCRASQSVNRHLAWYQQKPGQAPRLLIYEAATRATGIPARVSGSGSGTEFTLTISSLQSEDFAVYYCQQYQNWPLTFGGGTKVEIKR
22 |  |  | 0.0305 | < 5e-05 | 2G10.603 (antibody, human IgG1, kappa, N297G, V domains shown, also called SS-26228) VH: not shown VL: EIVMTQSPATLSVSPGERATLSCRASQSVDRHLAWYQQKPGQAPRLLIYEAATRATGIPARVSGSGSGTEFTLTISSLQSEDFAVYYCQQYQNWPLTFGGGTKVEIKR
